This note sets out measurements from patent US20240408194A1 (ARIZONA BOARD OF REGENTS ON BEHALF OF ARIZONA STATE …, published 2024).

The target of this test is spike B1.17 (SARS-CoV-2).

B1: LCB1 protein (designed binder)
chain: DKEWILQKIYEIMRLLDELGHAEASMRVSDLIYEFMKKGDERLLEEAERLLEEVER
B1: the affinity, expressed as Kd, was 0.27 nM.
